Source: publication doi:10.1101/294439
One block for each substance: values may come before it.

Tests used:
Experiment in all cases: SEC
[1] = target: Piper methysticum chalcone synthase (PmCHS) (kava (Piper methysticum))
[2] = target: Piper methysticum styrylpyrone synthase 2 (PmSPS2) (kava (Piper methysticum))
[3] = target: Piper methysticum kavalactone reductase 1 (PmKLR1) (kava (Piper methysticum))
[4] = target: Piper methysticum styrylpyrone synthase 1 (PmSPS1) (kava (Piper methysticum))

- stoichiometry N [1]: 2
Substance: Piper methysticum chalcone synthase (PmCHS) (enzyme)

- stoichiometry N [2]: 2
Substance: Piper methysticum styrylpyrone synthase 2 (PmSPS2) (enzyme)

- stoichiometry N [3]: 2
Substance: Piper methysticum kavalactone reductase 1 (PmKLR1) (enzyme)

- stoichiometry N [4]: 2
Substance: Piper methysticum styrylpyrone synthase 1 (PmSPS1) (enzyme)
